Experimental data as given in patent publication US11643691B2, “Predictive biomarkers for cancer immunotherapy and methods of using same” (Duke University, priority 2018, dated 2023).

What was measured:
DCs [1] = experiment: PpIX flow cytometry analysis and hemin colorimetric assay; format: cell-based, Murine
Procedure: IDO enzymatic assay and Hemin assay: DC IDO enzyme activity was measured by the conversion of L-tryptophan to L-kynurenine in conditioned media by HPLC (Pallotta et al., 2011). Intracellular hemin was measured using a colorimetric assay kit (BioVision).
PpIX Analysis: DCs were terminally incubated in the presence of 1 mM δ-aminolevulinic acid (ALA) for 4 hrs. Intracellular PpIX was analyzed by flow cytometry as previously described (Hryhorenko et al., 1998).

DCs [2] = experiment: BODIPY and fatty acid uptake assay; format: cell-based, Murine; conditions: TF2-C12 uptake, BODIPY
Procedure: BODIPY and Fatty Acid Uptake Assay: DCs were stained in 0.5 μg/ml BODIPY 493/503 in PBS for 15 min to determine neutral lipid content (Herber et al., 2010). Fatty acid uptake measurement in DCs were performed using a dodecanoic acid fluorescent TF2-C12 fatty acid (Sigma) according to the manufacturer's protocol.

DCs [3] = experiment: Flow cytometry of DC surface maturation markers; format: cell-based, Murine
Procedure: Flow Cytometry: One million cells were stained with 1 μg per million cells of each fluorochrome conjugated antibodies or commercially available dyes according to the standard protocols and analyzed using a FACSCanto II or LSRII (Becton Dickinson).

[4] = tested on: BRAF^V600EPTEN^−/− melanoma cell line; experiment: Qrt-PCR of chemokines in melanoma cell line after rWnt5a; format: cell-based; conditions: vs vehicle ctrl
Text: (A) TCGA melanoma database gene expression association analysis of CXCL5, CXCL2, and CXCR2 with WNT5A. (B) Whole tumor tissue Western blot analysis of Wnt5a, nuclear Yap-1, CXCL5 and β-actin (loading control). Representative blot shown (n=3). (C) Plasma CXCL5 ELISA following anti-PD-1 ab therapy vs IgG isotype ctrl therapy in the transgenic BRAF^V600EPTEN^−/− melanoma model (n=5). bottom, plasma CXCL5 dot blot following anti-PD-1 ab therapy vs IgG isotype ctrl therapy in the transgenic BRAF^V600EPTEN^−/− melanoma model. Representative of 3 independent experiments. pseudo-red reflective of density. (D) Qrt-PCR analysis of Cxcl5, Cxcl2, and Cxcl1 in the BRAF^V600EPTEN^−/− melanoma cell line following treatment with recombinant Wnt5a (rWnt5a) vs vehicle ctrl (n=3). (E) Western blot analysis of Yap-1 expression in total cellular lysates (top) and nuclear lysates (middle) following treatment of BRAF^V600EPTEN^−/− melanoma cells with rWnt5a at various time points. β-actin, total lysate loading ctrl. […], nuclear lysate loading ctrl. (bottom) rWnt5a induction of CXCL5 in the absence and presence of verteporfin (YAP inhibitor) or XAV939 (β-catenin inhibitor). All representative of 3 independent experiments. […]

DCs [5] = experiment: Extracellular acidification rate (ECAR), Seahorse XFe24 flux analysis of DCs; format: cell-based, Murine
Procedure: (§1) Dendritic Cell Conditioning: DCs were treated with Wnt3a (100 ng/mL), Wnt5a (200 ng/mL), LPS (1 μg/mL), 1-MT (1 mM), 2DG (1 mM), or ETO (100 μM), 2-DG(2-deoxy-d-glucose, 1 mM), Oligomycin (1 μM), succinylacetone (250 μM), or vehicle control either for 24 or 48 hrs prior to their use in both in vitro and in vivo experiments.
Cellular Energy Metabolism Analysis: DC energy metabolism was measured using the XFe24 extracellular flux analyzer (Seahorse Bioscience), with the glycolysis stress test kit and the mitochondrial stress test kit as previously described (Everts et al., 2014, Zhao and Klimecki, 2015). For experiments involving LPS injection, DCs were plated in XFe24 plates (200,000/well in 500p1) and treated with LPS for 48 hours prior to XF analysis. DCs were washed and analyzed in XF media (RPMI without sodium bicarbonate, 10 mM glucose, 1% FBS, 2 mM L-glutamine). ECAR was analyzed in real-time with or without LPS stimulation. For experiments involving BrafV600EPten−/− cell line-derived conditioned media (CM), collected CM was concentrated and desalted with an Amicon Ultra 30K filter according to manufacturer's recommendations (Milipore). Final concentrate was further washed with XF media 3 times, added to DCs immediately prior to OCR analysis. For standard ECAR analysis, XF media (without glucose) was used to wash cells prior to the assay. A final concentration of 10 mM glucose, 1 μM oligomycin, 50 mM 2-DG(sigma) were injected through XFe24 port A-C. For standard OCR analysis, XF media (with 10 mM glucose) was used to wash cells, a final concentration of 1 μM oligomycin, 1.5 μM FCCP (fluoro-carbonyl cyanide phenylhydrazone), 100 nM rotenone, and 1 μM of antimycin-A (Sigma) were injected through XFe24 port A-C.

CD4+FoxP3+ Treg cells = experiment: In vitro Treg cell assay (conditioned DCs with naive CD4+ T cells); format: cell-based, mice; conditions: treated DCs co-cultured with naive CD4+ T cells
Procedure: as §1
Treg Cell Assays: For in vivo Treg cell assays, DCs (C57, H-2b) were pre-treated for 48 hours and delivered by intradermal injection into the footpad of Foxp3-mRFP mice. Draining inguinal and popliteal lymph nodes were resected 5 days later and analyzed for CD4+Foxp3+ Treg cells. For in vitro Treg cell assays, DCs (Balb/c, H-2d) were pre-treated for either 24 or 48 hrs, and re-plated at a 1:3 DC:T-cell ratio with purified allogeneic naive Foxp3-mRFP(H-2b) CD44loCD62LhiCD4+ Tcells. These co-cultures were incubated for 6 days and quantitated for CD4+FoxP3+ Treg cells by flow cytometry.

B1: Wnt5a: Recombinant Human/Mouse Wnt5a Protein (R&D Systems) (protein, UniProt P41221 62-380, looked up)
Protein Wnt-5a: IIGAQPLCSQLAGLSQGQKKLCHLYQDHMQYIGEGAKTGIKECQYQFRHRRWNCSTVDNTSVFGRVMQIGSRETAFTYAVSAAGVVNAMSRACREGELSTCGCSRAARPKDLPRDWLWGGCGDNIDYGYRFAKEFVDARERERIHAKGSYESARILMNLHNNEAGRRTVYNLADVACKCHGVSGSCSLKTCWLQLADFRKVGDALKEKYDSAAAMRLNSRGKLVQVNSRFNSPTTQDLVYIDPSPDYCVRNESTGSLGTQGRLCNKTSEGMDGCELMCCGRGYDQFKTVQTERCHCKFHWCCYVKCKKCTEIVDQFVCK
With B1 the “DC concentrations of PpIX and hemin” value (DCs [1]) was “enhanced DC concentrations of the PpIX prosthetic group and its downstream degradation product, hemin”, the “DC fatty acid uptake and lipid stores” value (DCs [2]) was “enhance DC fatty acid uptake and lipid stores” and the “DC surface maturation markers / co-stimulatory receptors” value (DCs [3]) was “absence of any alterations in DC surface maturation markers”. The “expression of Cxcl5, Cxcl2 and Cxcl1” value [4] was “increased expression of Cxcl5, Cxcl2, and Cxcl1”, the “LPS-induced glycolytic surge (ECAR)” value (DCs [5]; DCs pre-treated) was “suppressed the lipopolysaccharide (LPS)-induced glycolytic surge” and the “glycolysis (ECAR) acutely after stimulation” value (DCs [5]; within 90 min of stimulation) was “failed to impact glycolysis”. The “DC-mediated Treg cell differentiation in vitro” value (CD4+FoxP3+ Treg cells) was “enhanced Treg cell differentiation in vitro”.
